Test results as given in the supplement of paper PMC10567573.

B1: FBXO39 (parent)
chain: PSRVHASEVESAVWYVKKFGRYLE
B2: MNAT1 (parent)
chain: LEEALYEYQPLQIETYGPHVPELE

Variants of: B1
Assay: protein stability index of a GFP-peptide fusion (GPS, HEK-293T) (PSI 1-6); higher = more stable
Conditions: c terminus: a fixed tail appended
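Also: lentivirally expressed fusions sorted by FACS into six bins by GFP to DsRed ratio, PSI derived from sequencing read proportions per bin multiplied by bin number.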

In order of falling protein stability index:
1. E8F  4.46
2. W14D  3.84
3. E8A  3.81
4. Y15D  3.73
5. W14T  3.68
6. W14N  3.68
7. V13P  3.59
8. W14H  3.44
9. E8R  3.41
10. V9G  3.35
11. V16H  3.32
12. R3T  3.32
13. H5E  3.31
14. V9E  3.31
15. Y15N  3.31
16. A6F  3.3
17. W14M  3.3
18. A12Q  3.27
19. K17R  3.25
20. W14S  3.22
21. V16N  3.18
22. V16D  3.18
23. W14C  3.17
24. V16R  3.17
25. P1Q  3.14
26. E8Y  3.1
27. V13N  3.09
28. V16S  3.08
29. E10L  3.06
30. E8M  3.03
31. A12E  3.02
32. V16K  3.01
33. A12N  3.01
34. A12W  2.98
35. W14P  2.96
36. W14A  2.96
37. V13E  2.96
38. V16E  2.96
39. V9D  2.96
40. S11K  2.91
41. V13D  2.9
42. Y15M  2.9
43. R3D  2.9
44. W14G  2.89
45. W14Q  2.87
46. H5W  2.86
47. K17S  2.84
48. Y15G  2.84
49. A12H  2.83
50. P1G  2.83
51. K17N  2.82
52. V16G  2.81
53. W14E  2.8
54. E8K  2.76
55. E8P  2.75
56. Y15Q  2.74
57. V13Q  2.73
58. A6S  2.72
59. V13H  2.72
60. H5Q  2.69
61. E10T  2.69
62. S7D  2.68
63. W14K  2.67
64. S2K  2.67
65. K17Y  2.66
66. V16C  2.65
67. V16M  2.65
68. Y15H  2.65
69. W14V  2.64
70. V9S  2.62
71. Y15P  2.61
72. W14R  2.58
73. V13S  2.57
74. K17G  2.57
75. S11E  2.57
76. V9N  2.56
77. V16P  2.54
78. A12R  2.54
79. R3M  2.54
80. Y15K  2.53
81. H5D  2.52
82. V4D  2.52
83. V4E  2.52
84. K17L  2.52
85. S2N  2.51
86. E10S  2.51
87. V13L  2.5
88. V16Q  2.5
89. P1W  2.5
90. H5L  2.49
91. R3P  2.49
92. S11D  2.49
93. A6W  2.48
94. S2Y  2.48
95. V9C  2.48
96. A6D  2.46
97. R3Q  2.46
98. Y15E  2.45
99. P1A  2.45
100. V13A  2.44
101. V16Y  2.44
102. V16T  2.43
103. A6T  2.4
104. V13G  2.4
105. V16A  2.4
106. S7Y  2.4
107. Y15S  2.4
108. R3W  2.4
109. S11C  2.4
110. V4I  2.39
111. K17I  2.39
112. W14I  2.38
113. E8H  2.38
114. E10R  2.37
115. K18E  2.37
116. H5N  2.36
117. E8L  2.36
118. K18C  2.36
119. S7Q  2.36
120. R3V  2.36
121. K17E  2.35
122. V9Q  2.35
123. A12I  2.34
124. V9R  2.34
125. Y15L  2.34
126. S2I  2.33
127. K18D  2.33
128. S7P  2.33
129. V9P  2.33
130. V9T  2.33
131. A6E  2.32
132. W14L  2.32
133. S2T  2.31
134. E10F  2.31
135. V4A  2.29
136. S2E  2.29
137. V9H  2.29
138. R3G  2.29
139. E8C  2.27
140. K17Q  2.27
141. V16W  2.27
142. H5G  2.26
143. V4H  2.25
144. K17D  2.25
145. A12P  2.25
146. A6L  2.24
147. S7H  2.24
148. V4L  2.22
149. S7A  2.22
150. V4Q  2.21
151. E10K  2.21
152. Y15R  2.21
153. P1K  2.21
154. V4G  2.19
155. S2D  2.19
156. R3N  2.19
157. W14Y  2.18
158. S2Q  2.18
159. A12S  2.18
160. R3I  2.18
161. V13R  2.17
162. E10Q  2.17
163. S11M  2.17
164. A12M  2.16
165. V13M  2.13
166. V4N  2.13
167. S7V  2.13
168. A12D  2.13
169. P1L  2.13
170. S7N  2.12
171. A6Q  2.11
172. H5A  2.11
173. E8I  2.11
174. K17H  2.1
175. R3S  2.1
176. S11I  2.1
177. S7E  2.09
178. V9A  2.09
179. Y15T  2.09
180. A6C  2.08
181. E8D  2.08
182. S2M  2.08
183. A12L  2.08
184. A12T  2.08
185. P1D  2.08
186. S11H  2.08
187. Y15A  2.07
188. S11Y  2.07
189. S11R  2.07
190. A6I  2.06
191. V4W  2.06
192. P1H  2.06
193. H5S  2.05
194. S2P  2.05
195. E10P  2.04
196. R3A  2.04
197. R3E  2.04
198. S11A  2.03
199. S11T  2.03
200. H5F  2.02
201. A12G  2.02
202. V9I  2.01
203. P1T  2.01
204. H5P  2
205. E10Y  2
206. K17A  2
207. A12K  2
208. E10C  1.99
209. S11L  1.99
210. R3H  1.98
211. A6G  1.97
212. V4M  1.97
213. S7F  1.97
214. S11N  1.97
215. V13T  1.96
216. V13C  1.95
217. S11P  1.95
218. S2G  1.94
219. V9Y  1.94
220. V4P  1.92
221. V9K  1.92
222. V9M  1.92
223. K17M  1.91
224. K17V  1.9
225. S2W  1.89
226. K17P  1.89
227. R3C  1.88
228. K17F  1.87
229. V16L  1.87
230. P1M  1.87
231. H5M  1.86
232. E8Q  1.85
233. E10I  1.85
234. E10D  1.84
235. S7I  1.84
236. P1E  1.84
237. S11G  1.84
238. V16F  1.83
239. V9L  1.83
240. P1I  1.83
241. R3K  1.83
242. A6P  1.82
243. S2R  1.82
244. P1C  1.82
245. S7M  1.81
246. V4R  1.8
247. A6K  1.79
248. V13K  1.78
249. K17T  1.77
250. S7T  1.77
251. A6H  1.76
252. S2H  1.76
253. A6N  1.74
254. Y15C  1.74
255. S11F  1.74
256. W14F  1.73
257. V16I  1.72
258. P1N  1.72
259. R3L  1.72
260. S2A  1.71
261. P1R  1.71
262. A6V  1.7
263. E8T  1.7
264. E8G  1.7
265. P1V  1.7
266. H5V  1.68
267. E8S  1.68
268. S7K  1.67
269. E10N  1.66
270. S7G  1.66
271. P1F  1.66
272. V4T  1.65
273. E10H  1.65
274. K18A  1.65
275. A12Y  1.65
276. S2F  1.64
277. E10A  1.64
278. S7L  1.64
279. S11Q  1.64
280. V4K  1.63
281. S2L  1.63
282. P1Y  1.63
283. V9F  1.62
284. H5C  1.61
285. V13I  1.61
286. K17W  1.61
287. V9W  1.61
288. V13W  1.6
289. S7W  1.59
290. A6Y  1.58
291. V4S  1.58
292. Y15I  1.58
293. R3Y  1.58
294. S11V  1.57
295. A6R  1.56
296. E8N  1.56
297. V4F  1.54
298. E10V  1.54
299. S11W  1.54
300. P1S  1.52
301. V4C  1.49
302. E10M  1.49
303. A12C  1.49
304. R3F  1.49
305. S7C  1.48
306. S7R  1.48
307. E8V  1.46
308. S2V  1.46
309. V13F  1.45
310. H5T  1.43
311. H5Y  1.43
312. V13Y  1.43
313. E8W  1.42
314. Y15F  1.42
315. E10G  1.41
316. Y15V  1.41
317. H5K  1.4
318. H5I  1.39
319. H5R  1.36
320. V4Y  1.34
321. K17C  1.34
322. A12V  1.29
323. A12F  1.28
324. A6M  1.27
325. Y15W  1.15

Variants of: B2
Assay: as above
Conditions: c terminus: a fixed tail appended

In order of rising protein stability index:
1. E24Y  1.39
2. E24W  1.45
3. E24P  1.93
4. E24R  1.95
5. E24Q  2.18
6. E24V  2.19
7. E24N  2.35
8. E24S  2.54
9. E24T  2.67
